Laboratory results reported in US20250270295A1 (ALBERT LUDWIGS UNIVERSITAET FREIBURG, published 2025).
Positions count from the first letter of the chain named. In names and notes the source's numbering stands.

B1: gp68.03 (antibody, V domains shown)
VH: EVKLEESGPEVKKPGETVKISCKASGYTFTNYGMSWLRQAPGKGLKWMGWINTYTGEPTYADDFKGRFAFSLETSASTAYFQINNLKDEDTTTYFCARRAFGGLDYWGQGTSVTVFS
VL: DIVLTQTPLSLPVSLGDQASISCRSSQSIVHSNGNTYLEWYLQKPGQSPKVLIYKVSKRFSGVPDRFSGSGSETDFTLKISRVEAEDMGVYYCFQGSHVPLTFGAGTKLELKR
notes: mouse IgG1 hybridoma mAb; leader in entries; VH entry see recheck; also called anti gp68 clone 68.03
B2: gp68.05 (antibody, V domains shown)
VH: QVKLEESGAELMKPGASVKISCTATGYTFSGYWIEWVKQRPGHGLEWIGEILPGSGGTNYNEKFKGKATFTADTSSNTAYMQLSSLTSEDSAVYYCARGIHYFGYYYFDYWGQGTTLTVSSAKTTPPSVY
VL: DIVLTQTPSSLSASLGDRVTISCRASQDISNYLNWYQLKPDGTVKLLIYYTSRLHSGVPSRFSGSGSGTDYSLTISNLEQEDIATYFCQQGNTLPPTFGGGTKLEIKRADAAPTVS
notes: mouse IgG1 hybridoma mAb; leader in entries; also called anti gp68 clone 68.05
B3: gp68.06 (antibody, V domains shown)
VH: B2 VH with E6Q
VL: B2 VL with T7S, S76N
notes: mouse IgG1 hybridoma mAb; leader in entries; also called anti gp68 clone 68.06
B4: gp68.01 (antibody, V domains shown)
VH: EVKLLESGPELVKPGSSVKISCKASGYSFADHIILWVKQSHGKSLEWIGNINPYSGNTIYNLNFKGKATLTVDKSSSTAYMQLNSLTSEDSAVYYCARIEGYYSMDYWGQGTSVTVSS
VL: DIVMTQTPLSLPVSLGDQASISCRSSQSIVHSNGNTYLEWYLQKPGQSPKVLIYKVSKRFSGVPDRFSGSGSGTDFTLKISRVEAEDMGVYYCFQGSHVPLTFGAGTKLELK
notes: mouse IgG1 hybridoma mAb; leader in entries
B5: gp68.02 (antibody, V domains shown)
VH: B4 VH with E6Q
VL: B4 VL with M4L
notes: as for B4
B6: soluble gp34 ectodomain W65F, V5-His tagged (sgp34mtrp-V5-His) (receptor)
chain: SSSNAVEPTKKPLKLANYRATCEDRTRTLVTRLNTSHHSVVFQRYDIYSRYMRRMPPLCIITDAYKETTRQGGAAFACTRQNLTLYNLTVKDTGVYLLQDQYTGDVEAFYLIIHPRSFCRALETRRCFYPGPGRVVVTDSQEADRAIISDLKRQWSGKPIPNPLLGLDSTRTGHHHHHH
notes: signal peptide 1-23 left out; V5 and His tags are in the entry; Forms only monomers and dimers; also called sol gp34mtrp; gp34 1-179 W65F
B7: gp34mtrp.01 (antibody, V domains shown)
VH: QVKLEESGAELVKPGASVKLSCTGSGFNIKDIYMDWVKQRPEQGLEWIGRIDPANGNSKYDPKFQGKATITVDTSSNTAYLQLSSLTSEDTAVYYCASYYGSSYNYWGQGTTLTVSS
VL: DIVITQTPPSVPVTPGESVSISCRSSKSLLHSNGNTYLYWFLQRPGQSPQLLIYRMSNLASGVPDRFSGSGSGTAFTLRISRVEAEDVGVYYCMQHLEYPLTFGAGTKLELKRADAAPTVS
notes: mouse IgG1 hybridoma mAb; leader in entries; also called anti gp34 clone mtrp.01
B8: gp34mtrp.02 (antibody, V domains shown)
VH: B7 VH with E6Q
VL: B7 VL
notes: mouse IgG1 hybridoma mAb; leader in entries; also called anti gp34 clone mtrp.02

Key:
[1] = target: T1, soluble human ICOSL ectodomain, V5-His tagged (sICOSL-V5His) (human, UniProt O75144 19-256); assay: western blot
T1 construct: extracellular domain; Control protein with the same tags as the vFcγRs
T1 sequence: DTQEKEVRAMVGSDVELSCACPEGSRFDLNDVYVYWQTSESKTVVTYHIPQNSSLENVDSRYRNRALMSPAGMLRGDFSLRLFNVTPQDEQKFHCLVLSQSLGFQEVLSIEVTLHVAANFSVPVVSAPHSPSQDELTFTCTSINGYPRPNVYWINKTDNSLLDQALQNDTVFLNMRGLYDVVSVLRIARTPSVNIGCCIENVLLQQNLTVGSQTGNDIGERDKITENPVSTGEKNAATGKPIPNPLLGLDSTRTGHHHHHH

[2] = target: T2, gp68_ECD_1 (1-201 aa) (HCMV strain AD169, UniProt P16739 24-201); assay: ELISA, coated supernatant
T2 construct: signal peptide 1-23 left out

[3] = target: T3, gp68_ECD_4a* (1-144aa) (HCMV strain AD169, UniProt P16739 24-144); assay: ELISA, coated supernatant
T3 construct: Shortened by a stop codon that arose in cloning, so a C-terminal tag is doubtful
T3 sequence: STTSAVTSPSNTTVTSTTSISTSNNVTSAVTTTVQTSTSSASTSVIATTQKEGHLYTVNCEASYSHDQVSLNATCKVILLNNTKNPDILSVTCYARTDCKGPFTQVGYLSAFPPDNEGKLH

[4] = target: gp68_ECD_4b (1-152) (HCMV strain AD169, UniProt P16739 24-152); assay: ELISA, coated supernatant
[5] = target: T4, soluble gp68 ectodomain, V5-His tagged (sgp68-V5-His) (HCMV strain AD169, UniProt P16739 24-292); assay: ELISA
T4 construct: V5 and His tags are in the entry; also called sol gp68; sgp68wt

[6] = target: T5, gp68_ECD_wt (HCMV strain AD169, UniProt P16739 24-292); assay: ELISA, coated supernatant
T5 construct: Called 'same antigen as used for immunization'; used as HEK293T supernatant; also called gp68wt extracellular domain

[7] = target: T6, gp68_ECD_7 (gp68 ΔO-glyc, 1-293 lacking 27-67aa) (HCMV strain AD169, UniProt P16739 65-292); assay: ELISA, coated supernatant
T6 sequence: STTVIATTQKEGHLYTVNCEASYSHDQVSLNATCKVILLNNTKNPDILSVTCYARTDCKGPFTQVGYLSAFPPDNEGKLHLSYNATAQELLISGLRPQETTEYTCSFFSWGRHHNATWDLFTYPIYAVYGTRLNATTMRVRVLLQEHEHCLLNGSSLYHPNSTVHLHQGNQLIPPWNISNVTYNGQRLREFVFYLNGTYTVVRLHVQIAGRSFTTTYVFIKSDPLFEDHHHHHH

[8] = target: T7, native vFcγR gp34 of HCMV AD169 (infected cells, virions) (HCMV strain AD169, UniProt P16809 24-234); assay: IP from infected cells; Fc-mediated background per the filing
T7 construct: also called native HCMV gp34 protein; gp34/RL11
T7 sequence (looked up): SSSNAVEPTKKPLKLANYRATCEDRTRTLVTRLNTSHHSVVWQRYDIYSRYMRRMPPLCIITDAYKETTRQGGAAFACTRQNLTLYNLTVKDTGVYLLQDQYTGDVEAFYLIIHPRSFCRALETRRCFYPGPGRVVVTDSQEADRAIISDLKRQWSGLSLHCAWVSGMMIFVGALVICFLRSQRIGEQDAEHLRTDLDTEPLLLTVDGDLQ
Procedure: Finally, anti-vFcγR gp68 mAbs were used for immunoprecipitation experiments. MRC5 fibroblasts were infected with HCMV AD169wt strain or a virus mutant lacking vFcγR gp68 (Δgp68) for 4 days with MOI 3. Infected cells were metabolically labeled with ³⁵S for 2 hours at 37° C., washed and lysed using NP40-lysis buffer. Lysates were incubated with indicated mAbs or human IgG Fc-fragment to pulldown vFcγR gp68 specifically or both HCMV-encoded vFcγRs gp34, gp68 using human IgG-Fc-fragment to precipitated Fc-binding proteins. Samples were deglycosylated by EndoH and separated on SDS-page gradient gel.
MRC5 fibroblast were infected with MOI 2. Four days post infection cells were metabolically labelled and following lysates were incubated with indicated anti-gp68 mAbs or human IgG-Fc-fragment for precipitation of vFcγR gp68.

[9] = target: T8, gp68 on stably transduced HeLa cells (HCMV strain AD169, UniProt P16739 24-345); assay: flow cytometry, HeLa, 1 µg/ml
T8 construct: whole, on cells; also called plasma membrane exposed gp68
T8 sequence: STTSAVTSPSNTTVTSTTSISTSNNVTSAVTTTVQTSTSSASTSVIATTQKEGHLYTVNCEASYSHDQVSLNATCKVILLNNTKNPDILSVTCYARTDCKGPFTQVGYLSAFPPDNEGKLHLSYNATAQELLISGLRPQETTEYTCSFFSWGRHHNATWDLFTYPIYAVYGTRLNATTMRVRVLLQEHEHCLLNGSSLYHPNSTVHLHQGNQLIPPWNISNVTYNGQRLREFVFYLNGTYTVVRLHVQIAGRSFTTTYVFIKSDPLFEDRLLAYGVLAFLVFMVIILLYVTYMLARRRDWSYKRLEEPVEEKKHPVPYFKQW

[10] = target: T9, C-reactive protein (human, UniProt P02741 19-224); assay: ELISA, CRP beside IgG1 and IgA
T9 construct: also called CRP; human CRP
T9 sequence: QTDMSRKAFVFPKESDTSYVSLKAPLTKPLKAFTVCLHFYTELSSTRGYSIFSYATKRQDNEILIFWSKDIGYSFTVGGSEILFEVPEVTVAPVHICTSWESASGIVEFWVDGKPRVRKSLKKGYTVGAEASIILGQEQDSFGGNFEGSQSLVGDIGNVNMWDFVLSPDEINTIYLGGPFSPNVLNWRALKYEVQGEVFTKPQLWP

[11] = target: B6; assay: ELISA mtrp
[12] = target: T10, gp34wt on stably transduced HeLa cells (HCMV strain AD169, UniProt P16809 24-234); assay: flow cytometry, HeLa, 1 µg/ml
T10 construct: whole, on cells; also called plasma membrane exposed gp34wt
T10 sequence: T7 sequence (looked up)

[13] = target: T11, gp34mtrp (W65F) on stably transduced HeLa cells (HCMV strain AD169, UniProt P16809 24-234); assay: flow cytometry, HeLa, 1 µg/ml
T11 construct: whole, on cells; also called plasma membrane exposed gp34mtrp
T11 sequence: T7 sequence (looked up) with W42F

[14] = target: T12, soluble gp34 wild type ectodomain, V5-His tagged (sgp34wt-V5-His) (HCMV strain AD169); assay: sgp34wt pre-incubated with mAb, ELISA on CRP
T12 construct: Entry holds signal peptide 1-23 (left out), ectodomain, V5 tag and His tag; Forms monomers, dimers and higher oligomers; also called sol gp34 wt; gp34 1-179
T12 chain: B6 chain with F42W
Source text: In addition, binding of sgp34wt to immobilized CRP in absence of any mAb is depicted.

[15] = target: T12, soluble gp34 wild type ectodomain, …; assay: sgp34wt pre-incubated with mAb, ELISA on FcRn
Procedure: Furthermore, the gp34wt and FcRn interaction was investigated whereby various anti-gp34 mAbs were analyzed and their potential to block this interaction was identified. Experiments were performed as described before for IgG-blocking ELISA, but this time using immobilized FcRn as a novel gp34-ligand.
In addition, binding of sgp34wt to immobilized FcRn in absence of any mAb is depicted.

[16] = target: T12, soluble gp34 wild type ectodomain, …; assay: blocking of sgp34wt binding to immobilized human IgG, ELISA
Procedure: FIG. 44: IgG blocking ability by anti-gp34mtrp mAbs. vFcγR gp34 is an HCMV encoded IgG-Fc-binding. Anti-gp34mtrp-specific mAbs (in titration) were pre-incubated with recombinant, sgp34wt (constant amount 1 μg/ml) and added to IgG-immobilized ELISA plates. […] Dose-dependent potential of mAbs used for blocking is indicated. Effect by non-specific mouse IgG isotype IgG1 is shown. In addition, binding of sgp34wt to immobilized IgG in absence of any mAb is depicted.
To test if anti-gp34wt specific mAbs can interfere with IgG-binding ability of gp34 and human IgG. Therefore, recombinant, sgp34wt was pre-incubated with indicated anti-gp34wt specific mAbs, mouse IgG isotype or PBS only. Next, antibody bound sgp34wt was incubated on IgG-immobilized ELISA plates.
Anti-gp34wt-specific mAbs (in titration) were pre-incubated with recombinant, sgp34wt (constant amount 1 μg/ml) and added to IgG-immobilized ELISA plates. […] Dose-dependent potential of mAbs used for blocking is indicated. […] In addition, binding of sgp34wt to immobilized IgG in absence of any mAb is depicted.

Binder | binding result [1] | binding result [2] | binding result [3] | binding result [4] | binding result [5] | binding result [6] | binding result [7] | binding result [8] | binding result [9] | binding result [10] | binding result [11] | binding result [12] | binding result [13] | percent blocking of gp34-CRP-binding [14] [%] | percent blocking of gp34 FcRn-binding [15] [%] | IC50 [16] [µg/mL]
B1 | no binding | no binding (tested: 1 µg/ml) | no binding (tested: 1 µg/ml) | no binding (tested: 1 µg/ml) |  |  |  |  |  |  |  |  |  |  |  | 
B2 | no binding | no binding (tested: 1 µg/ml) | no binding (tested: 1 µg/ml) | no binding (tested: 1 µg/ml) | binds | binds | binds | binds |  |  |  |  |  |  |  | 
B3 | no binding | no binding (tested: 1 µg/ml) | no binding (tested: 1 µg/ml) | no binding (tested: 1 µg/ml) | binds | binds | binds | binds |  |  |  |  |  |  |  | 
B4 | no binding | binds |  |  | binds | binds | binds |  | binds |  |  |  |  |  |  | 
B5 | no binding | binds |  |  | binds | binds | binds |  | binds |  |  |  |  |  |  | 
B6 |  |  |  |  |  |  |  |  |  | binds |  |  |  |  |  | 
B7 |  |  |  |  |  |  |  |  |  |  | binds | binds | binds | ~50 | ≤ 50 | 0.239
B8 |  |  |  |  |  |  |  |  |  |  | binds | binds | binds | ~50 | ≤ 50 | 0.33
